The results in this text go back to patent US20250326855A1 (GO THERAPEUTICS, published 2025).

Where no end group is shown, it is not given here. GalNAc = O-linked GalNAc (Tn antigen, GalNAc-alpha1-O-Ser/Thr)

For assay [1], the target named is T1, CD44v6 glycopeptide … with O-linked GalNAc on threonine 5 and serine 12 (human).
T1 construct: Synthetic glycopeptide; also called CD44v6-Tn(S + T); Tn-glycosylated CD44v6 glycopeptide
T1 peptide: GYRQT(GalNAc)PKEDSHS(GalNAc)TTGTAAA
Briefly: BLI (Octet); biotinylated peptide on biosensor, antibody in solution. The protocol:
(§1) The affinities of humanized 4C8 candidates 1-8 against the CD44v6 glycopeptide and a MUC1 glycopeptide were measured using by bio-layer interferometry (BLI) using an Octet system. The peptides were immobilized onto the biosensor by biotin (ligand) and antibodies were in solution (analyte). Candidate 8(4C8-HV7-4-1-A/LV7-46-A) was most similar to the original […] antibody and was selected for further testing. Table 13 summarizes the dissociation constants (KD) for the noted humanized 4C8 candidates against the glycopeptides.
For orientation: BLI is a label-free optical method that tracks binding on a fibre tip over time.

Assay [2] has as its target T2, MUC1 glycopeptide (MUC1-Tn) (UniProt P15941 138-197, limits assumed, Tn (GalNAc) glycosylated; sites not stated in the examples). The description is as above. The protocol: as §1
The target of assay [3] is Tn-glycosylated CD44 (human) (UniProt P16070). Briefly: ELISA, antibody fixed at 1 ug/mL, coated antigen CD44_10-G(S1T1)-BSA titrated. Background: In an ELISA, binding on a coated surface is turned into a signal by an enzyme label.
Assay [4] addresses T1, CD44v6 glycopeptide … with O-linked …. Briefly: hybridoma screening (ELISA, flow cytometry, immunofluorescence).
The target of assay [5] is T2, MUC1 glycopeptide (MUC1-Tn). Briefly: Biacore, column 'Affinity (Biacore)', row MUC1-Tn.
The target of assay [6] is T3, CD44v6 peptide glycoform with Tn on serine only (human).
T3 construct: also called CD44v6-Tn(S)
T3 peptide: GYRQTPKEDSHS(GalNAc)TTGTAAA
The assay is described as follows: BLI (Octet).

Assay [7] deals with T1, CD44v6 glycopeptide … with O-linked …. The assay is described as follows: BLI (Octet); biotinylated peptide on biosensor, antibody in solution; Table 13 Octet run with the humanized candidates; 4C8-cAb (mouse) as reference. The protocol:
as §1

Assay [8] has the same target. The assay is described as follows: BLI (Octet), apparent affinity with avidity factored in.
For assay [9] the target is unchanged. Briefly: SPR (Biacore); Biacore, not Octet. In general terms: Surface plasmon resonance follows binding to a sensor surface in real time, without labels.

T2 sequence (P15941 138-197 limits assumed): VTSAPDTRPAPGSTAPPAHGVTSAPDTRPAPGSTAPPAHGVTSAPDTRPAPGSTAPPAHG

B1: humanized 4C8 candidate 2 (4C8-HV1-46-A/LV7-43-A) (antibody, V domains shown)
VH: QVQLVQSGAEVKKPGASVKVSCKASGYTFTSYWMHWVRQAPGQGLEWIGNIYPRSGTTNYDGYFKSRATLTVDTSTSTAYMELSSLRSEDTAVYFCTRSGYDYPFVYWGQGTLVTVSS
VL: QAVVTQEPSLTVSPGGTVTLTCRTSTGAVSIRNYANWVQEKPGQAFRGLIGGTNNRAPWTPARFSGSLLGDKAALTLSGVQPEDEAEYFCALLYSNYWVFGGGTKLTVL
notes: also called Molecule Number 2
In the case of B1, in assay [1], the Kd is 194 nM.

B2: humanized 4C8 candidate 5 (4C8-HV1-18-A/LV7-46-A) (antibody, V domains shown)
VH: QVQLVQSGAEVKKPGASVKVSCKASGYTFTSYWMHWVRQAPGQGLEWIGNIYPRSGTTNYDGYFKSRATLTVDTSTSTAYMELRSLRSDDTAVYFCTRSGYDYPFVYWGQGTLVTVSS
VL: QAVVTQEPSLTVSPGGTVTLTCRTSTGAVSIRNYANWVQEKPGQAFRGLIGGTNNRAPWTPARFSGSLLGDKAALTLSGAQPEDEAEYFCALLYSNYWVFGGGTKLTVL
notes: also called Molecule Number 5
As for B2, the Kd in assay [1] amounted to 177 nM.

B3: humanized 4C8 candidate 6 (4C8-HV1-46-A/LV7-46-A) (antibody, V domains shown)
VH: QVQLVQSGAEVKKPGASVKVSCKASGYTFTSYWMHWVRQAPGQGLEWIGNIYPRSGTTNYDGYFKSRATLTVDTSTSTAYMELSSLRSEDTAVYFCTRSGYDYPFVYWGQGTLVTVSS
VL: QAVVTQEPSLTVSPGGTVTLTCRTSTGAVSIRNYANWVQEKPGQAFRGLIGGTNNRAPWTPARFSGSLLGDKAALTLSGAQPEDEAEYFCALLYSNYWVFGGGTKLTVL
notes: also called Molecule Number 6
Take B3: the binding result in [2] was “no binding (tested: affinity was below the detection limits)”. The same molecule returned a Kd in assay [1] of 169 nM.

B4: humanized 4C8 candidate 7 (4C8-HV1-69-A/LV7-46-A) (antibody, V domains shown)
VH: QVQLVQSGAEVKKPGSSVKVSCKASGYTFTSYWMHWVRQAPGQGLEWIGNIYPRSGTTNYDGYFKSRATLTVDTSTSTAYMELSSLRSEDTAVYFCTRSGYDYPFVYWGQGTLVTVSS
VL: QAVVTQEPSLTVSPGGTVTLTCRTSTGAVSIRNYANWVQEKPGQAFRGLIGGTNNRAPWTPARFSGSLLGDKAALTLSGAQPEDEAEYFCALLYSNYWVFGGGTKLTVL
notes: also called Molecule Number 7
The term EC50 (read off the curve) denotes the concentration giving half of the maximal effect. Low readings indicate greater potency, high ones weaker potency. In turn, B4 returned a concentration for a half-maximal effect (EC50 (read off the curve)) in assay [3] of 0.02 µg/mL. Also, the binding result in assay [2] was “no binding (tested: affinity was below the detection limits)”. In assay [1], this molecule gave a Kd of 183 nM.

B5: humanized 4C8 candidate 1 (4C8-HV1-18-A/LV7-43-A) (antibody, V domains shown)
VH: QVQLVQSGAEVKKPGASVKVSCKASGYTFTSYWMHWVRQAPGQGLEWIGNIYPRSGTTNYDGYFKSRATLTVDTSTSTAYMELRSLRSDDTAVYFCTRSGYDYPFVYWGQGTLVTVSS
VL: QAVVTQEPSLTVSPGGTVTLTCRTSTGAVSIRNYANWVQEKPGQAFRGLIGGTNNRAPWTPARFSGSLLGDKAALTLSGVQPEDEAEYFCALLYSNYWVFGGGTKLTVL
notes: also called Molecule Number 1
Turning to B5, the EC50 (read off the curve) in assay [3] is 0.02 µg/mL. In addition, the Kd in [1] came out at 191 nM.

B6: humanized 4C8 candidate 3 (4C8-HV1-69-A/LV7-43-A) (antibody, V domains shown)
VH: QVQLVQSGAEVKKPGSSVKVSCKASGYTFTSYWMHWVRQAPGQGLEWIGNIYPRSGTTNYDGYFKSRATLTVDTSTSTAYMELSSLRSEDTAVYFCTRSGYDYPFVYWGQGTLVTVSS
VL: QAVVTQEPSLTVSPGGTVTLTCRTSTGAVSIRNYANWVQEKPGQAFRGLIGGTNNRAPWTPARFSGSLLGDKAALTLSGVQPEDEAEYFCALLYSNYWVFGGGTKLTVL
notes: also called Molecule Number 3
On to B6, for which, in assay [1], the Kd was 161 nM.

B7: 18G9 antibody (antibody, V domains shown)
VH: DVQLVESGGGLVQPGGSRKLSCAASGFTFSSFGMHWVRQAPEKGLEWVAYISSGSSTIYYADTVKGRFTISRDNPKNTLFLQMTSLRSEDTAMYYCARGSYRAMDYWGQGTSVTVSS
VL: QIVLTQSPALMSASPGEKVTMTCSASSSVNYMFWYQQKPRSSPKPWIYLTSNLASGVPARFSGSGSGTSYSLTISSMEAEDAATYYCQLWSSNPFTFGSGTKLEIK
notes: Murine monoclonal antibody
B7: the binding result in assay [4] was “binds”.

B8: 2B2 antibody (antibody, V domains shown)
VH: EVQLVESGGGLVKPGGSLKLSCAASGFTFSSYAMSWVRQSPERRLEWVAEISSGGSYTYYPDTVTGRFTISRDNAKNTLYLEMSSLRSEDTAMYYCARTVGEDWYFDVWGAGTTVTVSS
VL: DIQMTQTTSSLSASLGDRVTISCRASQDISHYLNWYQQKPDGAVKLLIYSTSRLHSGVPSRFSGSGSGTDYSLTISNLEQEDIATYFCQQGYTLPFTFGSGTKLEIK
notes: Murine monoclonal antibody
Take B8: the binding result in assay [4] is given as “binds”.

B9: 1D12 antibody (antibody, V domains shown)
VH: DVQLVESGGGLVQPGGSRKLSCAASGFTFSSFGIHWVRQAPEKGLEWVAYISSGSSTIYYADTVKGRFTISRDNPKNTLFLQMTSLRSEDTAMYYCARGSKVVAKSRGYWYFDVWGAGTTVTVSS
VL: DVVVTQTPLFLPVSFGDQVSISCRSSQSLANNYGITYLSWYLHRPGQSPQLLIYGISNRFSGVPDRFSGSGSGTDFTLKISTIKPEDLGMYYCLQGTHQPWTFGGGTKLEIK
notes: Murine monoclonal antibody
In the case of B9, the binding result in assay [4] was “binds”.

B10: 4C8 monoclonal antibody (antibody, V domains shown)
VH: QVQLQQPGSELVRPGASVKLSCKASGYTFTSYWMHWVKQRPGQGLEWIGNIYPRSGTTNYDGYFKSKATLTVDTSSSTAYMQLSSLTSEDSAVYFCTRSGYDYPFVYWGQGTLVTVSA
VL: QAVVTQESALTTSPGETVTLTCRTSTGAVSIRNYANWVQEKPDHLFTGLIGGTNNRAPGVPARFSGSLIGDKAALTITGAQPEDEAIYFCALLYSNYWVFGGGTKLTVL
notes: Murine hybridoma antibody; also called 4C8 mAb; mAb 4C8
As for B10, the Kd was above 400 nM in assay [5]; 6.4 nM in assay [6]; 163 nM in assay [7]; 7.9 nM in [8]; 128 nM in [9]. For the same molecule, the EC50 (read off the curve) in [3] was 0.02 µg/mL.

B11: 10H4 antibody (antibody, V domains shown)
VH: QSLEESGGRLVTPGTPLTLTCTASGFTINTYHMGWFRQAPGKGLQYIGIVSHDVGTYYATWAKGRFTISKTSSTTVDLRMPSPTTEDTATYICARGPGYWTFNLWGQGTLVTVSS
VL: AQVLTQTPASVSAAVGGTVTINCQASQSVYNNNQLSWYQQKPGQPLKQLIYKASTLASGVPSRFKGSGSGSQFTLTISDLECDDAATYFCAGGYKGDIHPFGGGTEVVVK
notes: Rabbit monoclonal antibody
On to B11, for which the binding result in assay [4] is “binds”.
